From patent US20170101470A1 (PROTHENA BIOSCIENCES, published 2017)
Blank lines part the entries; values can stand above or below the binder they belong to.

Tests used:
[1] = biological target: T1, human MCAM-Fc protein (extracellular domain of human MCAM fused to human IgG) (human, UniProt P43121 24-559); test: summary sentence of Example 3 (ForteBio, MCAMhFc)
T1 construct: also called hMCAM-Fc; MCAMhFc
T1 chain: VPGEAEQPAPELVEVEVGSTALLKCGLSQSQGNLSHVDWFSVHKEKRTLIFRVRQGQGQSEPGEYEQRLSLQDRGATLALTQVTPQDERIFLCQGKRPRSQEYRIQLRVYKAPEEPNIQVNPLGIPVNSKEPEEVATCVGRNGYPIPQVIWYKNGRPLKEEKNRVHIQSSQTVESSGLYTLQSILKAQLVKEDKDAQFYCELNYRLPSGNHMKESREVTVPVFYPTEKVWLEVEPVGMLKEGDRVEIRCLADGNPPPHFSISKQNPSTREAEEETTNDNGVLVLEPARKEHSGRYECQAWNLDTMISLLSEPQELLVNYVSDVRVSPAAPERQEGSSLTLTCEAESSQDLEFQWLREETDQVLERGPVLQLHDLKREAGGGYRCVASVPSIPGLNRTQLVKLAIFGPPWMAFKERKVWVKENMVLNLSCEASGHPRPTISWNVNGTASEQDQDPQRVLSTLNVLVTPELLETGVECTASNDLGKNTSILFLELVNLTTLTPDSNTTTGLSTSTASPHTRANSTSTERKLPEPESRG
Description: (§1) The following protocol was used: ForteBio anti-human IgG Fc biosensors were used to immobilize various MCAMhFc domains including full length MCAMhFc protein on to biosensor surface. […] After loading these samples into a black 96 well plate, the Octet Red was programmed as follows: 60 seconds for baseline #1; 180 seconds for loading various domains; 60 seconds for baseline #2; 180 seconds for association of antibody to domain; and 240 seconds for dissociation of antibody from domain.
(§2) Reagents and Supplies Used: [0358] 1. MCAMhFc final concentration @ 5 ug/ml [0359] […] 3. ForteBio anti-human IgG Fc Capture (AHC) biosensors for kinetics experiments, cat#18-5060 [0361] 4. Block 96 well plate from Greiner Bio-one, cat#655209 [0362] 5. ForteBio Octet Red machine [0363] 6. Fresh tissue culture medium, DMEM with 20% FCS, was used as buffer for dilution

[2] = biological target: T2, human MCAM domains 1 and 2 hFc construct (human, UniProt P43121 19-242); test: ForteBio Octet Red, MCAMhFc domains on anti-human IgG Fc sensors
T2 construct: One of the 'various MCAMhFc domains' loaded on the ForteBio sensors
T2 sequence: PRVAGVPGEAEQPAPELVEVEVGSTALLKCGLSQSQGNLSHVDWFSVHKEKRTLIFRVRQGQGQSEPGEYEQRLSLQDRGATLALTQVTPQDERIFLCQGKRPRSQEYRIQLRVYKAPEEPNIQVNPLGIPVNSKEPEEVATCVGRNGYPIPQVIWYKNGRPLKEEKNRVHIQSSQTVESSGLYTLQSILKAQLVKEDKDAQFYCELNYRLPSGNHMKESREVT
Description: as §1, §2

[3] = biological target: T3, human MCAM domain 1 hFc construct (human, UniProt P43121 19-129); test: as above
T3 construct: One of the 'various MCAMhFc domains' loaded on the ForteBio sensors; also called MCAMhFc domain 1
T3 sequence: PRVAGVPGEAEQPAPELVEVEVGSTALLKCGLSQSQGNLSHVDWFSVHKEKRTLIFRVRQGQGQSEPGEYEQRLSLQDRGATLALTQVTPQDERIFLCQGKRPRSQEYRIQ
Description: as §1, §2

[4] = biological target: T4, human MCAM domain 2 hFc construct (human, UniProt P43121 139-242); test: as above
T4 construct: One of the 'various MCAMhFc domains' loaded on the ForteBio sensors; also called MCAMhFc domain 2
T4 sequence: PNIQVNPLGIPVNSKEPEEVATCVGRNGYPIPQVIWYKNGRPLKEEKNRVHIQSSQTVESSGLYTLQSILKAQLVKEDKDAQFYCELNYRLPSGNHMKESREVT
Description: as §1, §2

[5] = biological target: T5, human MCAM expressed on CHO cells (full length human MCAM gene) (human, UniProt P43121 24-646); test: flow cytometry: blocking of recombinant human laminin 411 (20 ug/ml) binding to CHO cells expressing human MCAM
T5 construct: also called hMCAM expressing CHO cells; CD146
T5 chain: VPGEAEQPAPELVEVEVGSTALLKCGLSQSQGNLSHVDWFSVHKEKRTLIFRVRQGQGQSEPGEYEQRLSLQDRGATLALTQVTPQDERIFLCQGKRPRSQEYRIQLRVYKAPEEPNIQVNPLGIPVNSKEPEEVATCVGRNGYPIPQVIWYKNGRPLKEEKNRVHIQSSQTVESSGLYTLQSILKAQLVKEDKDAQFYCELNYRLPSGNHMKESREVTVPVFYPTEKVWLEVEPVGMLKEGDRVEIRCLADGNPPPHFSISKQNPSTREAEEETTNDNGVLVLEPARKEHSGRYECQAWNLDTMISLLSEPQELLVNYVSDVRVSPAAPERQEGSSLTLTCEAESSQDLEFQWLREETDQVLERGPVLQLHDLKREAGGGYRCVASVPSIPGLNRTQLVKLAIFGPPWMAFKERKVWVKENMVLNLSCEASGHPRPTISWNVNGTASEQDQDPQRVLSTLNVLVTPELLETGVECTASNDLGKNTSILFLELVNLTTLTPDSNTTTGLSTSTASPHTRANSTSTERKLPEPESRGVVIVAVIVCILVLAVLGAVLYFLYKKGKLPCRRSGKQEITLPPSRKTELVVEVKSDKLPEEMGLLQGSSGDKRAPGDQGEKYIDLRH
Protocol: The 87 independent mouse fusion clones and 26 independent rat fusion clones described in Example 1 above as being capable of (i) binding to human MCAM, and (ii) blocking the interaction between human MCAM and the α-4 chain of laminin were further characterized as follows. First, IC50 quantitation for the ability of the monoclonal antibody to block the binding of human MCAM to the α-4 chain of laminin was determined as follows. CHO cells expressing human MCAM were incubated with an anti-human MCAM antibody (at various concentrations) for 30 minutes at 4 degrees Celsius. […] Unbound laminin was then washed away, and the laminin bound to the surface of the cells was detected with fluorescently labeled anti-laminin antibodies. After washing, the amount of laminin bound to the surface was detected by flow cytometry, and IC50s were calculated based on the mean fluorescent intensity.
Amino acid and nucleic acid sequences of the heavy and light chains of these antibodies, and their hypervariable regions, are provided in SEQ ID NOs:29-92. […] As such, each of these specific monoclonal antibodies was very capable of binding to human MCAM and inhibiting the interaction of cell-expressed human MCAM with its α-4 laminin binding ligand.

[6] = biological target: T6, human MCAM domain 3 hFc construct (human, UniProt P43121 244-321); test: ForteBio Octet Red, MCAMhFc domains on anti-human IgG Fc sensors, antibody at 5 ug/ml
T6 construct: One of the 'various MCAMhFc domains' loaded on the ForteBio sensors; also called MCAMhFc domain 3
T6 sequence: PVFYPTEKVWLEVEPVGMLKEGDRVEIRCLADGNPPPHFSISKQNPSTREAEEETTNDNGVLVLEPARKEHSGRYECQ
Description: as §1, §2

laminin α-4 = laminin α-4 (UniProt Q16363 25-1823); test: FACS on MCAM mutants displayed on mammalian cells
recombinant hMCAM-His [7] = biological target: T7, recombinant hMCAM-His (human, UniProt P43121 24-559); test: ForteBio Octet Red, antibody on anti-human Fc sensors, hMCAMHis analyte, 1:1 fit; affinity relative to rodent 2120, Expt. #1
T7 chain: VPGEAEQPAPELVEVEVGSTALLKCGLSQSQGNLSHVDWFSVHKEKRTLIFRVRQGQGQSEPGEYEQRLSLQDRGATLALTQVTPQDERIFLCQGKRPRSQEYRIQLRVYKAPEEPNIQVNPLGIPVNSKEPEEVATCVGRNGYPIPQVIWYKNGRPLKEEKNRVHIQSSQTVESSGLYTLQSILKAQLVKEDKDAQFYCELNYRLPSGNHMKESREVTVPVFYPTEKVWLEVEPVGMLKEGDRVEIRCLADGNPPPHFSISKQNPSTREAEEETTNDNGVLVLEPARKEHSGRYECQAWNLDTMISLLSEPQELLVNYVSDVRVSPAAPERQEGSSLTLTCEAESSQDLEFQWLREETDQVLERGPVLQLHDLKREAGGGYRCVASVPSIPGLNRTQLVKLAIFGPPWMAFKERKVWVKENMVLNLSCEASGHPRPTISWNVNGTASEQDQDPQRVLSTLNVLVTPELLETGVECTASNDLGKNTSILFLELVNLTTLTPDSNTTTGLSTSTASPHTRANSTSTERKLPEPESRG
Protocol: The affinities were measured using the ForteBio Octet Red. Anti-human Fc sensors were used to capture the humanized antibodies, and several concentrations of hMCAMHis analyte were used to determine the affinity using a 1:1 fitting model.

recombinant hMCAM-His [8] = biological target: T7, recombinant hMCAM-His; test: competitive ELISA on coated hMCAM-His, competitor biotinylated rodent or chimeric 2120; IC50 relative to rodent 2120, Expt. #1
Protocol: The apparent affinities of the humanized antibodies were compared to the parental rodent or chimeric antibody in a competitive ELISA according to the following protocol: ELISA plates were coated with recombinant hMCAM-His, and blocked with casein buffer to prevent non-specific binding. Biotinylated rodent or chimeric antibody was added at a subsaturating concentration, in the presence or absence of 3× increasing concentrations of unlabeled competitor (humanized antibody, rodent, or chimeric). After washing to remove unbound antibody, streptavidin HRP was added to allow detection of the biotinylated antibody. The ELISA was developed with TMB substrate and the OD450 was measured. The IC50 of the unlabeled competitor was determined using the GraphPad Prism5 software.

Sequence of laminin α-4 (Q16363 25-1823): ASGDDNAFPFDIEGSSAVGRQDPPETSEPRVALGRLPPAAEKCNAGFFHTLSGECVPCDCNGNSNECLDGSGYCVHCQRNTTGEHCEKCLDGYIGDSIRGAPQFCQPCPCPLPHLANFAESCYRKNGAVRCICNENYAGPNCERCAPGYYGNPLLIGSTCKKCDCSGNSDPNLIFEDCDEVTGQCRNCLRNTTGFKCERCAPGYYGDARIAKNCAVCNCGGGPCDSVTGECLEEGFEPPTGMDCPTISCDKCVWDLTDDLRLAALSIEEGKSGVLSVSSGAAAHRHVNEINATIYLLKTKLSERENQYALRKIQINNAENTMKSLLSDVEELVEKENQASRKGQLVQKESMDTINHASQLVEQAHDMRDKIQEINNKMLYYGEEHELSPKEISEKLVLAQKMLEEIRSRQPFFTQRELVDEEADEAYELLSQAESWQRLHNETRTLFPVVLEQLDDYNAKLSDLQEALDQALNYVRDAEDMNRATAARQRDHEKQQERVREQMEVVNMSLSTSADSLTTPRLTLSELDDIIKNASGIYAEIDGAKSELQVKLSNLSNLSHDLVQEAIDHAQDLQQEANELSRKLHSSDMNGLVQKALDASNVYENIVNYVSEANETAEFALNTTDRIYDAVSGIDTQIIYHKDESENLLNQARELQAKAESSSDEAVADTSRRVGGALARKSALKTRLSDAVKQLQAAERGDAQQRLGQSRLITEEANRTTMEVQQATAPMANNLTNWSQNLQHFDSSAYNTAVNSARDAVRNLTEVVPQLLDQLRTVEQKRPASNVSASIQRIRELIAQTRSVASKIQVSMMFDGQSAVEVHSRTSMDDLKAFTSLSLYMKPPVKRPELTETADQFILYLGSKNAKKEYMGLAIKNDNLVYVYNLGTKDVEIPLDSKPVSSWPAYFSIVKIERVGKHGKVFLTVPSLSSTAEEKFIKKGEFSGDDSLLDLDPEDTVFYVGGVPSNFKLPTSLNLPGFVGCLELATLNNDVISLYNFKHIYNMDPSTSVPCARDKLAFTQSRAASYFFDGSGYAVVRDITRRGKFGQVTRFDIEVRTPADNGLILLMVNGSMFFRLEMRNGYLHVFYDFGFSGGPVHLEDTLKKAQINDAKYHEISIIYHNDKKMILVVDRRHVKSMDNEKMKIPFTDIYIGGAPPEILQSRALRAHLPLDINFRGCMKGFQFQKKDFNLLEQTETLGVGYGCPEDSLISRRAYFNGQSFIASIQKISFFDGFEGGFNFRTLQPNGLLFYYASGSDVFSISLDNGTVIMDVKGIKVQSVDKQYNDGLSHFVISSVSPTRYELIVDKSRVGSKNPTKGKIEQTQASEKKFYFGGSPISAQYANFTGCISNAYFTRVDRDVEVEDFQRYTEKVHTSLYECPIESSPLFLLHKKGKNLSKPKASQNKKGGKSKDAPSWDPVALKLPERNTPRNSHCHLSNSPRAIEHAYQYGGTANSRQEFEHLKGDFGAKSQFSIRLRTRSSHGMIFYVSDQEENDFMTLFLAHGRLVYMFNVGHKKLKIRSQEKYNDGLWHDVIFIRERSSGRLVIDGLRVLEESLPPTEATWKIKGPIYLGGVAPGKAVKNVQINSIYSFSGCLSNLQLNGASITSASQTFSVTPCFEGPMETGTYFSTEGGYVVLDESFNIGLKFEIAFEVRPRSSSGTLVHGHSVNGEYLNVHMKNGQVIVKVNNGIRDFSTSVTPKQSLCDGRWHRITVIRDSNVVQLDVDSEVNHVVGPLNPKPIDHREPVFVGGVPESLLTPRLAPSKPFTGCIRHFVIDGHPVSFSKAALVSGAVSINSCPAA

B2: human MCAM I141A mutant displayed on mammalian cells (Example 5) (receptor)
chain: VPGEAEQPAPELVEVEVGSTALLKCGLSQSQGNLSHVDWFSVHKEKRTLIFRVRQGQGQSEPGEYEQRLSLQDRGATLALTQVTPQDERIFLCQGKRPRSQEYRIQLRVYKAPEEPNAQVNPLGIPVNSKEPEEVATCVGRNGYPIPQVIWYKNGRPLKEEKNRVHIQSSQTVESSGLYTLQSILKAQLVKEDKDAQFYCELNYRLPSGNHMKESREVTVPVFYPTEKVWLEVEPVGMLKEGDRVEIRCLADGNPPPHFSISKQNPSTREAEEETTNDNGVLVLEPARKEHSGRYECQAWNLDTMISLLSEPQELLVNYVSDVRVSPAAPERQEGSSLTLTCEAESSQDLEFQWLREETDQVLERGPVLQLHDLKREAGGGYRCVASVPSIPGLNRTQLVKLAIFGPPWMAFKERKVWVKENMVLNLSCEASGHPRPTISWNVNGTASEQDQDPQRVLSTLNVLVTPELLETGVECTASNDLGKNTSILFLELVNLTTLTPDSNTTTGLSTSTASPHTRANSTSTERKLPEPESRGVVIVAVIVCILVLAVLGAVLYFLYKKGKLPCRRSGKQEITLPPSRKTELVVEVKSDKLPEEMGLLQGSSGDKRAPGDQGEKYIDLRH
notes: construct and any tag not described
binding result (laminin α-4): no binding

B4: humanized anti-MCAM antibody h2120_VH3 + h2120_VL3 (antibody, V domains shown)
VH: QVTLKESGPVLVKPTETLTLTCTVSGFSLTSSGVSWVRQPPGKALEWIAAISSGGTTYYNSAFKSRLTISRDTSKSQVVLTMTNMDPVDTATYYCARRYGYGWYFDFWGQGTLVTVSS
VL: DIQMTQSPSSLSASVGDRVTINCKASQNIYNSLAWYQQKPGKAPKVLIFNANSLQTGIPSRFSGSGSGTDFTLTISSLQPEDFATYYCQQFYSGYTFGQGTKLEIK
notes: Human IgG1 / human kappa; also called h2120VH3VL3; N-S deamidate VH + conservative VL
Fold over rodent (Forte) (recombinant hMCAM-His [7]): 16.1 fold
Fold over rodent (ELISA) (recombinant hMCAM-His [8]): 3.47 fold

Second part, the binder after the results:

binding result [1]: binds
binding result [2]: no binding (tested: 5 ug/ml)
binding result [3]: no binding (tested: 5 ug/ml)
binding result [4]: no binding (tested: 5 ug/ml)
IC50 [5]: 0.545 µg/mL
binding result [6]: binds
B1: mouse anti-human MCAM monoclonal antibody clone 1749.1.3 (antibody, V domains shown)
VH: DVKLVESGGDLVKPGGSLKLSCAASGFTFSSYIMSWVRQTPEKRLEWVATISSGGSSTYYPDSVKGRFTISRDNAKNTLYLQMSSLKSEDTAMYYCTRDDDYDVKVFAYWGQGTLVTVSA
VL: DIVMSQSPSSLAVSAGEKVTMNCKSSRSLLNSRIRKNYLAWYQQKPGQSPKLLIYWASTRESGVPDRFTGSGSGTDFTLTISSVQAEDLAVYYCKQSYNLLTFGAGTKLELK
notes: Mouse hybridoma antibody

binding result (laminin α-4): no binding
B3: human MCAM D216A mutant displayed on mammalian cells (Example 5) (receptor)
chain: VPGEAEQPAPELVEVEVGSTALLKCGLSQSQGNLSHVDWFSVHKEKRTLIFRVRQGQGQSEPGEYEQRLSLQDRGATLALTQVTPQDERIFLCQGKRPRSQEYRIQLRVYKAPEEPNIQVNPLGIPVNSKEPEEVATCVGRNGYPIPQVIWYKNGRPLKEEKNRVHIQSSQTVESSGLYTLQSILKAQLVKEAKDAQFYCELNYRLPSGNHMKESREVTVPVFYPTEKVWLEVEPVGMLKEGDRVEIRCLADGNPPPHFSISKQNPSTREAEEETTNDNGVLVLEPARKEHSGRYECQAWNLDTMISLLSEPQELLVNYVSDVRVSPAAPERQEGSSLTLTCEAESSQDLEFQWLREETDQVLERGPVLQLHDLKREAGGGYRCVASVPSIPGLNRTQLVKLAIFGPPWMAFKERKVWVKENMVLNLSCEASGHPRPTISWNVNGTASEQDQDPQRVLSTLNVLVTPELLETGVECTASNDLGKNTSILFLELVNLTTLTPDSNTTTGLSTSTASPHTRANSTSTERKLPEPESRGVVIVAVIVCILVLAVLGAVLYFLYKKGKLPCRRSGKQEITLPPSRKTELVVEVKSDKLPEEMGLLQGSSGDKRAPGDQGEKYIDLRH
notes: as for B2
